The supplement of paper PMC10567573

B1: VPS39 (parent)
chain: QQVKCIITEEKVCMVCKKKIGNSA

Variants of: B1
Experiment: protein stability index of a GFP-peptide fusion (GPS, HEK-293T) (PSI 1-6); higher = more stable
Details: c terminus: a fixed tail appended
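Note: lentivirally expressed fusions sorted by FACS into six bins by GFP to DsRed ratio, PSI derived from sequencing read proportions per bin multiplied by bin number.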

Protein stability index of substitutions, site by site:
K11: H 3.3 | W 2.08 | R 2.9 | T 2.55 | D 2.52 | F 1.75 | C 4.08 | S 2.9 | A 3.64 | P 3.15 | V 2.39 | G 2.35 | I 2.44 | E 2.87 | L 1.87 | N 2.89 | M 1.8 | Q 2.84 | Y 1.77
K4: G 2.81 | W 2.25 | P 3.12 | A 2.72 | R 2.53 | I 1.19 | E 3.28 | S 2.22 | H 2.44 | N 2.83 | M 1.83 | Y 1.42 | C 3.6 | F 1.42 | Q 2.77 | D 2.68 | V 2.19 | L 1.77 | T 2.44
V3: P 3.49 | N 2.8 | I 2.38 | S 3.17 | W 1.49 | T 2.82 | Y 2.58 | K 2.89 | R 2.5 | M 2.8 | Q 3.32 | L 2.77
E10: F 1.97 | A 1.9 | I 2.34 | G 2.41 | R 2.23 | P 2.69 | D 1.95 | C 3.05 | T 2.41 | K 2.54 | H 2.13 | W 2.44 | S 2.03 | N 2.01 | L 1.47 | M 2.4 | Q 2.29 | Y 2.65
E9: N 1.87 | W 1.35 | K 2.49 | Q 1.85 | G 2 | H 1.85 | S 3.77 | F 2.94 | I 1.81 | Y 1.9 | R 1.54 | P 2.46 | M 1.33 | T 2.08 | L 1.73 | A 2.22 | D 3.29 | C 1.8 | V 1.95
C5: N 2.79 | F 1.96 | L 2.34 | V 2.22 | K 3.61 | W 1.94 | I 2.24 | T 3.16 | P 3.32 | H 3.21 | A 3.02 | M 1.99 | D 3.86 | G 2.82 | E 3.75 | R 3.48 | Q 3.07 | Y 2.69
T8: V 2.12 | H 2.81 | I 2.12 | Q 3.34 | P 4.09 | E 3.48 | R 2.45 | K 2.47 | W 2.87 | F 1.52 | Y 2.6 | G 3.42 | A 2.45 | L 2.16 | N 2.9 | C 2.48 | D 3.08
V12: H 2.64 | F 2.11 | D 3.87 | G 3.55 | E 3.96 | C 2.09 | A 3.41
I6: N 3.25 | S 3.5 | W 1.75 | V 3.05 | D 3.82 | L 2.45 | M 2.93 | K 3.46 | C 3.34 | R 2.6 | T 3.38 | E 3.96 | Y 2.49 | H 3.47 | G 2.47 | A 2.67 | Q 3.13 | P 4.07 | F 2.6
I7: A 3.38 | H 4.39 | L 2.11 | K 2.9 | G 2.77 | W 2.46 | N 2.84 | M 3.54 | E 3.01 | V 3.4 | R 2.86 | D 3.49 | Y 3.28 | C 4.47 | P 4.23 | T 2.69 | F 2.97 | S 3.06 | Q 2.76
